The record followed here is paper PMC6097615 (Developmental cell, 2010).

B1: Fbx4G (Fbx4 GTPase domain, residues 162–387) (domain or fragment, human, UniProt Q9UKT5 162-387, looked up)
chain: GAVTSFLHSLIIQNEPRFAMFGPGLEELNTSLVLSLMSSEELCPTAGLPQRQIDGIGSGVNFQLNNQHKFNILILYSTTRKERDRAREEHTSAVNKMFSRHNEGDDQQGSRYSVIPQIQKVCEVVDGFIYVANAEAHKRHEWQDEFSHIMAMTDPAFGSSGRPLLVLSCISQGDVKRMPCFYLAHELHLNLLNHPWLVQDTEAETLTGFLNGIEWILEEVESKRAR
B2: TRF1_(TRFH) (TRFH domain of TRF1, residues 58–268), GST tag removed (domain or fragment, human, UniProt P54274 58-268, looked up)
chain: EEEEEDAGLVAEAEAVAAGWMLDFLCLSLCRAFRDGRSEDFRRTRNSAEAIIHGLSSLTACQLRTIYICQFLTRIAAGKTLDAQFENDERITPLESALMIWGSIEKEHDKLHEEIQNLIKIQAIAVCMENGNFKEAEEVFERIFGDPNSHMPFKSKLLMIISQKDTFHSFFQHFSYNHMMEKIKSYVNYVLSEKSSTFLMKAAAKVVESKR
B3: GST-TRF1_(TRFH) (domain or fragment, human, UniProt P54274 58-268, looked up)
chain: B2 chain

Data set [1] has as its target B2. The data set is described as follows: crystal structure.
The data set “crystal structure” concerns the molecule itself. The data set is described as follows: crystal structure.
Data set [2] concerns the target B1. The data set is described as follows: pull-down.

Consider B1, for which the “stoichiometry N” value in data set [1] was 1 Fbx4G per TRF1_TRFH (printed as 2:2).

For the molecule B2, in “crystal structure”, the binding result is on record as “binds”.

With B3, in data set [2], the binding result is “binds”.

In general, stoichiometry N refers to the number of molecules, sites or subunits per partner or assembly.
